The text below walks through data of patent US20240400654A1.

B1: KB001 (antibody, V domains shown)
VH: EVQLKQSGPGLVAPSQSLSITCTVSGFSLSIYSVHWVRQPPGKGLEWLGMIWGGGSSDYNSALKSRLSISKDNSKSQVFLKMNSLQTDDTAMYYCARNGNFYAMDYWGQGTSVTVSS
VL: QIVLTQSPAIMSASLGERVTMTCTASSSVSSSFLHWYQQKPGSSPQLWIYSTSNLASGVPARFSGSGSGTSYSLTISSMEAEDAATYYCHQYHHSPYIYTFGGGTKLEIKR
B2: H8 (antibody, V domains shown)
VH: QVQLQESGPGLVKPSETLSLTCTVSGFSLSIYSVHWIRQPPGKGLEWIGMIWGGGSSDYNSALKSRLTISKDTSKNQVSLKLSSVTAADTAVYYCARNGNFYAMDYWGQGTLVTVSS
VL: EIVLTQSPGTLSLSPGERATLSCTASSSVSSSFLHWYQQKPGQAPQLWIYSTSNLASGIPARFSGSGSGTDYTLTISRLEPEDFATYYCHQYHHSPYIYTFGGGTKLEIK
B3: H5 (antibody, V domains shown)
VH: B2 VH
VL: B2 VL with Q46R, W48L, A61D, Y72F, T86V
B4: H7 (antibody, V domains shown)
VH: B2 VH
VL: B2 VL with A61D
B5: H14 (antibody, V domains shown)
VH: B2 VH with I48L, V92M
VL: B2 VL with A61D, T86V
B6: H8 K222A (antibody, V domains shown)
VH: B2 VH
VL: B2 VL
B7: H7 K222A (antibody, V domains shown)
VH: B2 VH
VL: B2 VL with A61D
B8: H5 K222A (antibody, V domains shown)
VH: B2 VH
VL: B2 VL with Q46R, W48L, A61D, Y72F, T86V
B9: H14 K222A (antibody, V domains shown)
VH: B2 VH with I48L, V92M
VL: B2 VL with A61D, T86V
B10: KB001 parental mouse Fab FASEBA variant VH Y106Q (Fab, V domains shown)
VH: B1 VH with Y106Q
VL: QIVLTQSPAIMSASLGERVTMTCTASSSVSSSFLHWYQQKPGSSPQLWIYSTSNLASGVPARFSGSGSGTSYSLTISSMEAEDAATYYCHQYHHSPYIYTFGGGTKLEIK
B11: KB001 parental mouse Fab FASEBA variant VH Y106I (Fab, V domains shown)
VH: B1 VH with Y106I
VL: B10 VL
B12: KB001 parental mouse Fab FASEBA variant VH A103G (Fab, V domains shown)
VH: B1 VH with A103G
VL: B10 VL
B13: KB001 parental mouse Fab FASEBA variant VH F101S (Fab, V domains shown)
VH: B1 VH with F101S
VL: B10 VL
B14: KB001 parental mouse Fab FASEBA variant VH Y106D (Fab, V domains shown)
VH: B1 VH with Y106D
VL: B10 VL
B15: KB001 parental mouse Fab FASEBA variant VH M104L (Fab, V domains shown)
VH: B1 VH with M104L
VL: B10 VL
B16: KB001 parental mouse Fab FASEBA variant VH A103M (Fab, V domains shown)
VH: B1 VH with A103M
VL: B10 VL
B17: KB001 parental mouse Fab FASEBA variant VH A103V (Fab, V domains shown)
VH: B1 VH with A103V
VL: B10 VL
B18: KB001 parental mouse Fab FASEBA variant VH F101M (Fab, V domains shown)
VH: B1 VH with F101M
VL: B10 VL
B19: KB001 parental mouse Fab FASEBA variant VH A103K (Fab, V domains shown)
VH: B1 VH with A103K
VL: B10 VL
B20: KB001 parental mouse Fab FASEBA variant VH Y106K (Fab, V domains shown)
VH: B1 VH with Y106K
VL: B10 VL
B21: KB001 parental mouse Fab FASEBA variant VH A103C (Fab, V domains shown)
VH: B1 VH with A103C
VL: B10 VL
B22: KB001 parental mouse Fab FASEBA variant VH A103I (Fab, V domains shown)
VH: B1 VH with A103I
VL: B10 VL
B23: KB001 parental mouse Fab FASEBA variant VH A103L (Fab, V domains shown)
VH: B1 VH with A103L
VL: B10 VL
B24: KB001 parental mouse Fab FASEBA variant VH F101W (Fab, V domains shown)
VH: B1 VH with F101W
VL: B10 VL
B25: KB001 parental mouse Fab FASEBA variant VH M104V (Fab, V domains shown)
VH: B1 VH with M104V
VL: B10 VL
B26: KB001 parental mouse Fab FASEBA variant VH Y106W (Fab, V domains shown)
VH: B1 VH with Y106W
VL: B10 VL
B27: KB001 parental mouse Fab FASEBA variant VH Y106H (Fab, V domains shown)
VH: B1 VH with Y106H
VL: B10 VL
B28: KB001 parental mouse Fab FASEBA variant VH F101L (Fab, V domains shown)
VH: B1 VH with F101L
VL: B10 VL

Residue numbers refer to the chain shown, from its start. In names and notes the source's numbering stands. Several values for one entry are separate records, joined by “and”; a condition that tells them apart may be missing. Identical values can stand only once.

The target of the first assay is HRgpA-6H (Porphyromonas gingivalis) (UniProt P28784). In words: SPR Biacore 8K, 25 C; table lists HRgpA-6H as ligand, antibody as analyte. In general terms: Surface plasmon resonance follows binding to a sensor surface in real time, without labels.
In turn, B1 came in with a Kd of 2.02 nM, a koff of 8.62e-05 s⁻¹ and a kon of 42600 M⁻¹ s⁻¹.

In the case of B2, the Kd worked out at 1.33 nM, the koff came out at 6.7e-05 s⁻¹ and the kon stood at 50300 M⁻¹ s⁻¹.

For B3, the Kd is 0.825 nM, the koff is 4.5e-05 s⁻¹ and the kon was found to be 54500 M⁻¹ s⁻¹.

In turn, B4 showed a Kd of 0.258 nM, a koff of 1.07e-05 s⁻¹ and a kon of 41400 M⁻¹ s⁻¹.

Take B5: the Kd amounted to 0.939 nM, the koff is 4.89e-05 s⁻¹ and the kon came to 52100 M⁻¹ s⁻¹.

For another assay the target is unchanged. Nature of the assay: SPR Biacore 8K; table lists HRgpA-6H as ligand, antibody as analyte.
B6: the Kd amounted to 0.57 nM, the koff is 3.3e-05 s⁻¹ and the kon was 58000 M⁻¹ s⁻¹.

Regarding B7, the Kd was determined as 0.795 nM, the koff stood at 4.36e-05 s⁻¹ and the kon came to 54800 M⁻¹ s⁻¹.

The molecule B8 returned a Kd of 0.068 nM, a koff of 3.42e-06 s⁻¹ and an on-rate (kon) of 50200 M⁻¹ s⁻¹.

In the case of B9, the Kd came to 1.3 nM, the koff is 6.53e-05 s⁻¹ and the kon amounted to 50100 M⁻¹ s⁻¹.

Another assay shares this target. Nature of the assay: ELISA, FASEBA screening, coated HRgpA-6H 0.0625 ug/ml. On the technique in general: ELISA stands for enzyme-linked immunosorbent assay.
B10 registered an OD450 nm of 0.768.

B11: the OD450 nm is 0.73 and 0.728 and 0.764.

On to B12, for which the OD450 nm is 0.815 and 0.804 and 0.755.

Consider B13, for which the OD450 nm is 0.678 and 0.725.

Consider B14, for which the OD450 nm came out at 0.675.

Consider B15, for which the OD450 nm was determined as 0.786.

In the case of B16, the OD450 nm amounted to 0.811.

With B17, the OD450 nm was 0.849 and 0.807.

On to B18, for which the OD450 nm is 0.755.

For the molecule B19, the OD450 nm was determined as 0.723.

B20 had an OD450 nm of 0.767.

Molecule B21 gave an OD450 nm of 0.77.

For the molecule B22, the OD450 nm was 0.695 and 0.693.

For the molecule B23, the OD450 nm was 0.783.

Take B24: the OD450 nm is 0.825 and 0.828 and 0.802.

Turning to B25, the OD450 nm turned out to be 0.654.

Take B26: the OD450 nm is 0.733 and 0.748.

The molecule B27 showed an OD450 nm of 0.722.

Take B28: the OD450 nm was 0.681.

The next assay has the same target. In words: SPR Biacore 8K, 25 C; HRGPA-6H immobilized on CM5, KB001-WT-Ab as analyte.
Consider B1, for which the Kd worked out at 2.02 nM, the off-rate (koff) is 8.62e-05 s⁻¹ and the on-rate constant (kon) was 42600 M⁻¹ s⁻¹.

A further assay has as its target whole P. gingivalis cells (strain W83) (Porphyromonas gingivalis).
Test: not given
Consider B1, for which the Kd turned out to be 11.4 nM; the Response is 0.297 and 0.216 and 0.186; the koff was 0.000219 s⁻¹; the on-rate (kon) amounted to 19200 M⁻¹ s⁻¹.

The target is the same in a further assay. Nature of the assay: gold-labelled KB001, scanning electron microscopy, W83.
Turning to B1, the IgG molecules bound per bacterium (molecules per bacterium) was 60 and 80.

For the next assay, the target named is HRgpA-6H (Porphyromonas gingivalis) (UniProt P28784). In words: ELISA, FASEBA screening, coated HRgpA-6H; variant OD over parental WT Fab OD.
In the case of B10, the Ratio OD(Variant)/OD(WT) worked out at 0.999.

For B11, the Ratio OD(Variant)/OD(WT) is 0.949 and 0.947 and 0.993.

As to B12, the Ratio OD(Variant)/OD(WT) was 0.945 and 0.933 and 0.876.

Regarding B13, the Ratio OD(Variant)/OD(WT) is 0.8 and 0.856.

With B14, the Ratio OD(Variant)/OD(WT) came out at 0.878.

With B15, the Ratio OD(Variant)/OD(WT) was determined as 0.904.

Consider B16, for which the Ratio OD(Variant)/OD(WT) is 0.941.

As for B17, the Ratio OD(Variant)/OD(WT) is 0.985 and 0.936.

B18: the Ratio OD(Variant)/OD(WT) stood at 0.891.

On to B19, for which the Ratio OD(Variant)/OD(WT) worked out at 0.839.

Consider B20, for which the Ratio OD(Variant)/OD(WT) was found to be 0.997.

Regarding B21, the Ratio OD(Variant)/OD(WT) turned out to be 0.893.

As for B22, the Ratio OD(Variant)/OD(WT) is 0.806 and 0.804.

Regarding B23, the Ratio OD(Variant)/OD(WT) is 0.908.

B24: the Ratio OD(Variant)/OD(WT) was 0.974 and 0.978 and 0.947.

Regarding B25, the Ratio OD(Variant)/OD(WT) came to 0.85.

Turning to B26, the Ratio OD(Variant)/OD(WT) is 0.953 and 0.973.

Take B27: the Ratio OD(Variant)/OD(WT) came to 0.939.

For B28, the Ratio OD(Variant)/OD(WT) is 0.804.

By Kd is commonly meant the equilibrium constant for the complex coming apart. What is called koff is the rate constant with which the complex falls apart. Low values mean a long-lived complex, high ones a short-lived complex. For orientation: kon means a measure of how fast the partners come together.
